Here are results for 2 substances from article PMC6269424.

The conditions of this series: O-GlcNAc at T84.

In the case of “PPARγ2: adipocyte-specific OGT knockout (FKO)”, the expression_or_secretion entry was “decreases”.
For PPARγ2: T84A the value was “decreases”.
